The source of these data is article PMC10259489, “Identification of epigenetic modulators as determinants of nuclear size and shape” (eLife, 2023).

Test [1] deals with T1, histone H3R8me2/K9me2 peptide (R8me2, K9me2).
T1 chain: ARTKQTARKSTGGKAPRKQ
Briefly: peptide or protein array; MODified histone peptide array (Active Motif, 384 peptides spotted); 10 nM purified GST-lamin A (pACS37) in 100 mM KCl, 20 mM HEPES pH 7.5, 1 mM EDTA, 0.1 mM DTT, 10% glycerol, room temperature 1 hr; detected with anti-GST and HRP secondary, ECL. As to conditions: both partners purified.

The target of test [2] is T2, GST-lamin A (aa 389–646), entire Ig-fold and C-terminus (human, UniProt P02545 389-646).
T2 construct: pGEX4T1 construct; also called full-length lamin A tail; source: E. coli Rosetta 2, purified (glutathione Sepharose 4B); not shown: GST, N-terminal, kept
T2 sequence (looked up): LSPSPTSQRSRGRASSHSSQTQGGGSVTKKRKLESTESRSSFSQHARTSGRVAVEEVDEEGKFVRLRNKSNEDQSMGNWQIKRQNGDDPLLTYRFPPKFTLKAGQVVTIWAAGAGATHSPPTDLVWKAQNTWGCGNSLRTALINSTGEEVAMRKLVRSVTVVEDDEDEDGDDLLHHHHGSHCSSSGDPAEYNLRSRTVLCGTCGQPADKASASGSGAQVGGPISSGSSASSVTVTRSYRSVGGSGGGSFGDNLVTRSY
Briefly: pull-down; calf thymus histone pull-down with GST-lamin A (wild type or C522A) and GST-lamin C (389–572) co-incubated, with or without DTT. To be noted: both partners purified.

B1: GST-lamin A (506–646) (domain or fragment, human, UniProt P02545 506-646, looked up)
chain: HSPPTDLVWKAQNTWGCGNSLRTALINSTGEEVAMRKLVRSVTVVEDDEDEDGDDLLHHHHGSHCSSSGDPAEYNLRSRTVLCGTCGQPADKASASGSGAQVGGPISSGSSASSVTVTRSYRSVGGSGGGSFGDNLVTRSY
notes: detected by anti-GST; also called GST-lamin A (pACS37); source: E. coli Rosetta 2, purified (glutathione Sepharose 4B); not shown: GST, N-terminal, kept
For the molecule B1, the “fold signal against H3K9me2” value in test [1] was around 5 fold.

B2: GST-lamin C (aa 389–572), C-terminal region of lamin C (domain or fragment, human, UniProt P02545-2 389-572, looked up)
chain: LSPSPTSQRSRGRASSHSSQTQGGGSVTKKRKLESTESRSSFSQHARTSGRVAVEEVDEEGKFVRLRNKSNEDQSMGNWQIKRQNGDDPLLTYRFPPKFTLKAGQVVTIWAAGAGATHSPPTDLVWKAQNTWGCGNSLRTALINSTGEEVAMRKLVRSVTVVEDDEDEDGDDLLHHHHVSGSRR
notes: pGEX4T1 construct; source: E. coli Rosetta 2, purified (glutathione Sepharose 4B); not shown: GST, N-terminal, kept
As for B2, the binding result in test [2] is recorded as “binds”.
